Assay results: patent US20140086916A1 (Merck Sharp & Dohme, published 2014)
Several values for one entry are separate records, joined by “and”; a condition that tells them apart may be missing. Equal values may be shown once.

Experiments:
wild-type human PCSK9 = target: T1, wild-type human PCSK9 (human, UniProt Q8NBP7 31-692, limits assumed); assay: SPR (Biacore T100), antibody captured by anti-human Fc, PCSK9 as analyte, 1:1 model
T1 construct: also called PCSK9 antigen
Experimental: The CM5 chip was immobilized on all flowcells with mouse anti-human IgG (Fc specific) according to the Biacore Human Antibody Capture Kit (Cat# BR-1008-39) to ˜7000RU. Anti-PCSK9 antibodies were captured on the chip to ˜500RU followed by analyte injections of wild-type human PCSK9 from 64.1 nM to 2.0 nM. Each flowcell was regenerated between each analyte injection with 3M MgCl for 40 seconds at 10 uL/min. Data was analyzed with Biacore T100 Evaluation Software using the 1:1 binding model using at least 5 point concentration range sensogram.

[1] = target: T2, FcγRIIIa-V158 (Pichia pastoris produced) (UniProt P08637 17-208, limits assumed); assay: ELISA on plate-coated receptor; antibody dimerized with anti-human IgG F(ab')2-AP; ELISA IC50, YGLY23258 (dimer), Table 5 experiment
T2 construct: also called FcγRIIIA LV; FcgRIIIA LV
Experimental: (§1) Fcγ receptor binding assays were carried out as described (Shields, et al. (2001) J. Biol. Chem. 276:6591-6604) with minor modifications. High protein binding 96-well plates (Corning Costar) were coated with 100 μL per well of Fcγ receptor solutions in PBS at the following concentrations: 1 μg/mL for both FcγRI (R&D Systems) and FcγRIIa (Pichia pastoris produced), 2 μg/mL for FcγRIIb (P. pastoris produced), 0.8 μg/mL for FcγRIIIa-F158, and 0.4 μg/mL for FcγRIIIa-V158 (both P. pastoris produced). All Pichia pastoris produced receptors were expressed and purified as described (Li, et al. (2006) Nature Biotechnology 24:210-215). Monomeric antibody samples added to the FcγRI plate were serially diluted in assay diluent (1×PBS, 1% BSA, and 0.05% Tween20) and 100 μL, per well was added to the plate. Antibody samples prepared for the remaining receptors require a one hour dimerization step with half molar ratio of goat anti-human IgG F(ab′)2 F(ab′)2 that is conjugated with alkaline phosphatase for detection. […] FcγRI bound sample antibody was detected using the same goat anti-human IgG F(ab′)2 alkaline phosphatase conjugated F(ab′)2. Sample antibody binding was quantified by measuring excitation at 340 nm and emission at 465 nm after 18 hour incubation with SuperPhos, 4-MUP Fluorescence AP Substrate Detection System (Virolabs).

[2] = target: T3, FcγRIIIa-F158 (Pichia pastoris produced) (UniProt P08637 17-208, limits assumed); assay: as above
T3 construct: also called FcγRIIIA LF; FcgRIIIA LF
Experimental: as §1

T3 sequence (P08637 17-208 limits assumed): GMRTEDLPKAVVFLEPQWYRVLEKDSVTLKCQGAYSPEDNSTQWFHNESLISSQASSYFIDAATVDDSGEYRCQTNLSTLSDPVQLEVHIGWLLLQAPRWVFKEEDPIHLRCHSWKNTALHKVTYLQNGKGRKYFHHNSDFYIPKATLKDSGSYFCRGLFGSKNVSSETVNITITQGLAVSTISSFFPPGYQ
T2 sequence (P08637 17-208 F176V limits assumed): as the sequence (P08637 17-208 limits assumed) above, with F160V counted along it

B1: 1F11 wildtype (parent) humanized anti-PCSK9 monoclonal IgG1 antibody (antibody)
heavy: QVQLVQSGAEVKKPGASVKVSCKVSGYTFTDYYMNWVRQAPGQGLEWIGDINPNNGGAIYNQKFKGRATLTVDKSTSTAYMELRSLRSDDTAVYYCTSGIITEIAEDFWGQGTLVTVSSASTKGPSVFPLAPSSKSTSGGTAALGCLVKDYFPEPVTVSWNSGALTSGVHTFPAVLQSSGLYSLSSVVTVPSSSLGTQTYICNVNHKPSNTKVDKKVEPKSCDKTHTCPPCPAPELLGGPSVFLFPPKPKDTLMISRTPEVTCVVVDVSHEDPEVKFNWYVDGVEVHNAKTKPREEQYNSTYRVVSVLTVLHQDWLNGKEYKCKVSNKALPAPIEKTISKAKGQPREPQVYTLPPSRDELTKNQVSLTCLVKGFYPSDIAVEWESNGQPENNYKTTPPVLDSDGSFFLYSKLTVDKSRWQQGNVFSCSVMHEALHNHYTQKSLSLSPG
light: DIQMTQSPSSLSASVGDRVTITCKASQNVGTNVVWYQQKPGKAPKALIHSASYRYSGVPSRFSGSGSGTDFTLTISSLQPEDFATYYCQQYKTYPYTFGQGTKVEIKRTVAAPSVFIFPPSDEQLKSGTASVVCLLNNFYPREAKVQWKVDNALQSGNSQESVTEQDSKDSTYSLSSTLTLSKADYEKHKVYACEVTHQGLSSPVTKSFNRGEC
notes: Produced in glycoengineered Pichia pastoris GFI5.0 (strain YGLY21351); also called 1F11 IgG1 GS5.0; YGLY21351
Kd (wild-type human PCSK9): 3.29 nM and 2.3 nM | koff (wild-type human PCSK9): 0.000499 s⁻¹ and 0.000407 s⁻¹ | kon (wild-type human PCSK9): 152000 M⁻¹ s⁻¹ and 177000 M⁻¹ s⁻¹

B2: 1F11 IgG1 F243A/V264A double mutein anti-PCSK9 antibody (antibody)
heavy: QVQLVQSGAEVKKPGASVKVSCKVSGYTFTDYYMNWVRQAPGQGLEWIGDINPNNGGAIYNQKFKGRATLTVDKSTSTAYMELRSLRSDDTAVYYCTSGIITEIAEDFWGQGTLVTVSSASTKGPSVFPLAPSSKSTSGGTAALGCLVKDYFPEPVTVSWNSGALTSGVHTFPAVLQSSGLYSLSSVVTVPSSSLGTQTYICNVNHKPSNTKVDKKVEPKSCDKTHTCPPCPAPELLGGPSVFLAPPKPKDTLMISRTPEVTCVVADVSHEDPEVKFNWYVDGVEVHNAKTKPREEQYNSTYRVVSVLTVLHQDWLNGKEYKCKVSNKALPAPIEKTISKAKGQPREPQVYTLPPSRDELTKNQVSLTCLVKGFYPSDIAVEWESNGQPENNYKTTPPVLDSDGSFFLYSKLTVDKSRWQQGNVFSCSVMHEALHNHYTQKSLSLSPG
light: DIQMTQSPSSLSASVGDRVTITCKASQNVGTNVVWYQQKPGKAPKALIHSASYRYSGVPSRFSGSGSGTDFTLTISSLQPEDFATYYCQQYKTYPYTFGQGTKVEIKRTVAAPSVFIFPPSDEQLKSGTASVVCLLNNFYPREAKVQWKVDNALQSGNSQESVTEQDSKDSTYSLSSTLTLSKADYEKHKVYACEVTHQGLSSPVTKSFNRGEC
notes: sialylated N-glycans; also called 1F11 DM; YGLY23258
IC50 [1]: 0.13 mg/L | IC50 [2]: 0.94 mg/L
